The test addresses T1, B/Vic-I53_dn5 nanoparticle (Influenza B virus B/Brisbane/60/2008 …, strain).
T1 chain: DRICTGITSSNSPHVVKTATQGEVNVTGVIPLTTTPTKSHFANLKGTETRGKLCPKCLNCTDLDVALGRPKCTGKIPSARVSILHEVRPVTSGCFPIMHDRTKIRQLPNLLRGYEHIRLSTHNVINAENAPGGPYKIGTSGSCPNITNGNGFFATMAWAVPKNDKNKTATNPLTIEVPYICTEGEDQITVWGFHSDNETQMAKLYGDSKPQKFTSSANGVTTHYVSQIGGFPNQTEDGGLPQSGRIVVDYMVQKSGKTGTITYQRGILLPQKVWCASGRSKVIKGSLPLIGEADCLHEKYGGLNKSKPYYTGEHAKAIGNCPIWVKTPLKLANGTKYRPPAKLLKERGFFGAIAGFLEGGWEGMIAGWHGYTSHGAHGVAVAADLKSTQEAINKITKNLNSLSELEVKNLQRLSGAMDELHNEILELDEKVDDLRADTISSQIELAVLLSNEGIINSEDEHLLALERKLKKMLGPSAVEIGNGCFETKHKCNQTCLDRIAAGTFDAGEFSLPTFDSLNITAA
Put plainly: ELISA. (ELISA stands for enzyme-linked immunosorbent assay.)

B1: CR8071 (antibody, V domains shown)
VH: QVQLVQSGAEVKKPGASVRVSCRASGYIFTESGITWVRQAPGQGLEWMGWISGYSGDTKYAQKLQGRVTMTKDTSTTTAYMELRSLRYDDTAVYYCARDVQYSGSYLGAYYFDYWSPGTLVTVSS
VL: QSVLTQPPSASGTPGQRVTISCSGSSSNIGTNYVYWYQQFPGTAPKLLIYRSYQRPSGVPDRFSGSKSGSSASLAISGLQSEDEADYYCATWDDSLDGWVFGGGTKLTVL
On to B1, for which the binding result is listed as “binds”.

Source of the values: PMC8269962 (Nature, 2021).
